Source: patent US20140087995A1 (published 2014)
Numbered stars: 1 amine (or outer) side, 2 acyl side, 3 side chain; on linkers, the order of the positions; unused ones are H or OH. Bridge positions count the residues as written; N and C are the ends. Side chains are listed from the residue outwards. Ends that are not written are not given here. * marks the point of attachment. C20 diacid = O=C(O)CCCCCCCCCCCCCCCCCCC(=O)*; γGlu = O=C(O)[C@H](CCC(=O)[*:2])N[*:1]

B1: N^ε1-[(4S)-4-carboxy-4-[[(4S)-4-carboxy-4-(19-carboxynonadecanoylamino)butanoyl]amino]butanoyl]-[Ser14,Arg17,Pro21,Pro27,Pro34,Glu35]-h-amylin (peptide)
peptide: K([γGlu-γGlu-C20 diacid])CNTATCATQRLASFLRHSSPNFGAIPSSTNVGPETY-NH2
modifications: disulfide 2-7; N-terminus assumed
SMILES: CC[C@H](C)[C@H](NC(=O)[C@H](C)NC(=O)CNC(=O)[C@H](Cc1ccccc1)NC(=O)[C@H](CC(N)=O)NC(=O)[C@@H]1CCCN1C(=O)[C@H](CO)NC(=O)[C@H](CO)NC(=O)[C@H](Cc1c[nH]cn1)NC(=O)[C@H](CCCNC(=N)N)NC(=O)[C@H](CC(C)C)NC(=O)[C@H](Cc1ccccc1)NC(=O)[C@H](CO)NC(=O)[C@H](C)NC(=O)[C@H](CC(C)C)NC(=O)[C@H](CCCNC(=N)N)NC(=O)[C@H](CCC(N)=O)NC(=O)[C@@H](NC(=O)[C@H](C)NC(=O)[C@@H]1CSSC[C@H](NC(=O)[C@@H](N)CCCCNC(=O)CC[C@H](NC(=O)CC[C@H](NC(=O)CCCCCCCCCCCCCCCCCCC(=O)O)C(=O)O)C(=O)O)C(=O)N[C@@H](CC(N)=O)C(=O)N[C@@H]([C@@H](C)O)C(=O)N[C@@H](C)C(=O)N[C@@H]([C@@H](C)O)C(=O)N1)[C@@H](C)O)C(=O)N1CCC[C@H]1C(=O)N[C@@H](CO)C(=O)N[C@@H](CO)C(=O)N[C@H](C(=O)N[C@@H](CC(N)=O)C(=O)N[C@H](C(=O)NCC(=O)N1CCC[C@H]1C(=O)N[C@@H](CCC(=O)O)C(=O)N[C@H](C(=O)N[C@@H](Cc1ccc(O)cc1)C(N)=O)[C@@H](C)O)C(C)C)[C@@H](C)O
notes: also called compound 120
B2: N^-1-[(4S)-4-carboxy-4-(19-carboxynonadecanoylamino)butanoyl]-Gly[Arg1,His14,Arg17,Pro21,Pro27,His34]-h-amylin (peptide)
peptide: {C20 diacid-γGlu}-GRCNTATCATQRLAHFLRHSSPNFGAIPSSTNVGHNTY-NH2
modifications: disulfide 3-8
SMILES: CC[C@H](C)[C@H](NC(=O)[C@H](C)NC(=O)CNC(=O)[C@H](Cc1ccccc1)NC(=O)[C@H](CC(N)=O)NC(=O)[C@@H]1CCCN1C(=O)[C@H](CO)NC(=O)[C@H](CO)NC(=O)[C@H](Cc1c[nH]cn1)NC(=O)[C@H](CCCNC(=N)N)NC(=O)[C@H](CC(C)C)NC(=O)[C@H](Cc1ccccc1)NC(=O)[C@H](Cc1c[nH]cn1)NC(=O)[C@H](C)NC(=O)[C@H](CC(C)C)NC(=O)[C@H](CCCNC(=N)N)NC(=O)[C@H](CCC(N)=O)NC(=O)[C@@H](NC(=O)[C@H](C)NC(=O)[C@@H]1CSSC[C@H](NC(=O)[C@H](CCCNC(=N)N)NC(=O)CNC(=O)CC[C@H](NC(=O)CCCCCCCCCCCCCCCCCCC(=O)O)C(=O)O)C(=O)N[C@@H](CC(N)=O)C(=O)N[C@@H]([C@@H](C)O)C(=O)N[C@@H](C)C(=O)N[C@@H]([C@@H](C)O)C(=O)N1)[C@@H](C)O)C(=O)N1CCC[C@H]1C(=O)N[C@@H](CO)C(=O)N[C@@H](CO)C(=O)N[C@H](C(=O)N[C@@H](CC(N)=O)C(=O)N[C@H](C(=O)NCC(=O)N[C@@H](Cc1c[nH]cn1)C(=O)N[C@@H](CC(N)=O)C(=O)N[C@H](C(=O)N[C@@H](Cc1ccc(O)cc1)C(N)=O)[C@@H](C)O)C(C)C)[C@@H](C)O
notes: also called compound 100
B3: N^-1-[(4S)-4-carboxy-4-(19-carboxynonadecanoylamino)butanoyl]-Gly[Arg1,Ala14,Arg17,Pro21,Pro27,His34]-h-amylin (peptide)
peptide: {C20 diacid-γGlu}-GRCNTATCATQRLAAFLRHSSPNFGAIPSSTNVGHNTY-NH2
modifications: disulfide 3-8
SMILES: CC[C@H](C)[C@H](NC(=O)[C@H](C)NC(=O)CNC(=O)[C@H](Cc1ccccc1)NC(=O)[C@H](CC(N)=O)NC(=O)[C@@H]1CCCN1C(=O)[C@H](CO)NC(=O)[C@H](CO)NC(=O)[C@H](Cc1c[nH]cn1)NC(=O)[C@H](CCCNC(=N)N)NC(=O)[C@H](CC(C)C)NC(=O)[C@H](Cc1ccccc1)NC(=O)[C@H](C)NC(=O)[C@H](C)NC(=O)[C@H](CC(C)C)NC(=O)[C@H](CCCNC(=N)N)NC(=O)[C@H](CCC(N)=O)NC(=O)[C@@H](NC(=O)[C@H](C)NC(=O)[C@@H]1CSSC[C@H](NC(=O)[C@H](CCCNC(=N)N)NC(=O)CNC(=O)CC[C@H](NC(=O)CCCCCCCCCCCCCCCCCCC(=O)O)C(=O)O)C(=O)N[C@@H](CC(N)=O)C(=O)N[C@@H]([C@@H](C)O)C(=O)N[C@@H](C)C(=O)N[C@@H]([C@@H](C)O)C(=O)N1)[C@@H](C)O)C(=O)N1CCC[C@H]1C(=O)N[C@@H](CO)C(=O)N[C@@H](CO)C(=O)N[C@H](C(=O)N[C@@H](CC(N)=O)C(=O)N[C@H](C(=O)NCC(=O)N[C@@H](Cc1c[nH]cn1)C(=O)N[C@@H](CC(N)=O)C(=O)N[C@H](C(=O)N[C@@H](Cc1ccc(O)cc1)C(N)=O)[C@@H](C)O)C(C)C)[C@@H](C)O
B4: N^-1-[(4S)-4-carboxy-4-(19-carboxynonadecanoylamino)butanoyl]-Gly[Arg1,Ala14,Arg17,Pro21,Pro27,Pro34]-h-amylin (peptide)
peptide: {C20 diacid-γGlu}-GRCNTATCATQRLAAFLRHSSPNFGAIPSSTNVGPNTY-NH2
modifications: disulfide 3-8
B5: N^-1-[(4S)-4-carboxy-4-(19-carboxynonadecanoylamino)butanoyl]-Gly[Arg1,His14,Arg17,Pro21,Pro27,Pro34]-h-amylin (peptide)
peptide: {C20 diacid-γGlu}-GRCNTATCATQRLAHFLRHSSPNFGAIPSSTNVGPNTY-NH2
modifications: disulfide 3-8
SMILES: CC[C@H](C)[C@H](NC(=O)[C@H](C)NC(=O)CNC(=O)[C@H](Cc1ccccc1)NC(=O)[C@H](CC(N)=O)NC(=O)[C@@H]1CCCN1C(=O)[C@H](CO)NC(=O)[C@H](CO)NC(=O)[C@H](Cc1c[nH]cn1)NC(=O)[C@H](CCCNC(=N)N)NC(=O)[C@H](CC(C)C)NC(=O)[C@H](Cc1ccccc1)NC(=O)[C@H](Cc1c[nH]cn1)NC(=O)[C@H](C)NC(=O)[C@H](CC(C)C)NC(=O)[C@H](CCCNC(=N)N)NC(=O)[C@H](CCC(N)=O)NC(=O)[C@@H](NC(=O)[C@H](C)NC(=O)[C@@H]1CSSC[C@H](NC(=O)[C@H](CCCNC(=N)N)NC(=O)CNC(=O)CC[C@H](NC(=O)CCCCCCCCCCCCCCCCCCC(=O)O)C(=O)O)C(=O)N[C@@H](CC(N)=O)C(=O)N[C@@H]([C@@H](C)O)C(=O)N[C@@H](C)C(=O)N[C@@H]([C@@H](C)O)C(=O)N1)[C@@H](C)O)C(=O)N1CCC[C@H]1C(=O)N[C@@H](CO)C(=O)N[C@@H](CO)C(=O)N[C@H](C(=O)N[C@@H](CC(N)=O)C(=O)N[C@H](C(=O)NCC(=O)N1CCC[C@H]1C(=O)N[C@@H](CC(N)=O)C(=O)N[C@H](C(=O)N[C@@H](Cc1ccc(O)cc1)C(N)=O)[C@@H](C)O)C(C)C)[C@@H](C)O
B6: N{-1}-[(4S)-4-carboxy-4-(19-carboxynonadecanoylamino)butanoyl]-Gly[Arg1,His14,Arg17,Pro21,Pro27]-h-amylin (peptide)
peptide: {C20 diacid-γGlu}-GRCNTATCATQRLAHFLRHSSPNFGAIPSSTNVGSNTY-NH2
modifications: disulfide 3-8
SMILES: CC[C@H](C)[C@H](NC(=O)[C@H](C)NC(=O)CNC(=O)[C@H](Cc1ccccc1)NC(=O)[C@H](CC(N)=O)NC(=O)[C@@H]1CCCN1C(=O)[C@H](CO)NC(=O)[C@H](CO)NC(=O)[C@H](Cc1c[nH]cn1)NC(=O)[C@H](CCCNC(=N)N)NC(=O)[C@H](CC(C)C)NC(=O)[C@H](Cc1ccccc1)NC(=O)[C@H](Cc1c[nH]cn1)NC(=O)[C@H](C)NC(=O)[C@H](CC(C)C)NC(=O)[C@H](CCCNC(=N)N)NC(=O)[C@H](CCC(N)=O)NC(=O)[C@@H](NC(=O)[C@H](C)NC(=O)[C@@H]1CSSC[C@H](NC(=O)[C@H](CCCNC(=N)N)NC(=O)CNC(=O)CC[C@H](NC(=O)CCCCCCCCCCCCCCCCCCC(=O)O)C(=O)O)C(=O)N[C@@H](CC(N)=O)C(=O)N[C@@H]([C@@H](C)O)C(=O)N[C@@H](C)C(=O)N[C@@H]([C@@H](C)O)C(=O)N1)[C@@H](C)O)C(=O)N1CCC[C@H]1C(=O)N[C@@H](CO)C(=O)N[C@@H](CO)C(=O)N[C@H](C(=O)N[C@@H](CC(N)=O)C(=O)N[C@H](C(=O)NCC(=O)N[C@@H](CO)C(=O)N[C@@H](CC(N)=O)C(=O)N[C@H](C(=O)N[C@@H](Cc1ccc(O)cc1)C(N)=O)[C@@H](C)O)C(C)C)[C@@H](C)O
notes: also called compound 99

target: T1, rat calcitonin receptor (rat, UniProt P32214 25-516); experiment: ratio IC50 rat calcitonin receptor / IC50 rat amylin receptor (reference)
T1 construct: whole, on cells; Membranes of transiently transfected BHK tk'ts 13 cells (Assay VIII); also called rCTR
T1 sequence (looked up): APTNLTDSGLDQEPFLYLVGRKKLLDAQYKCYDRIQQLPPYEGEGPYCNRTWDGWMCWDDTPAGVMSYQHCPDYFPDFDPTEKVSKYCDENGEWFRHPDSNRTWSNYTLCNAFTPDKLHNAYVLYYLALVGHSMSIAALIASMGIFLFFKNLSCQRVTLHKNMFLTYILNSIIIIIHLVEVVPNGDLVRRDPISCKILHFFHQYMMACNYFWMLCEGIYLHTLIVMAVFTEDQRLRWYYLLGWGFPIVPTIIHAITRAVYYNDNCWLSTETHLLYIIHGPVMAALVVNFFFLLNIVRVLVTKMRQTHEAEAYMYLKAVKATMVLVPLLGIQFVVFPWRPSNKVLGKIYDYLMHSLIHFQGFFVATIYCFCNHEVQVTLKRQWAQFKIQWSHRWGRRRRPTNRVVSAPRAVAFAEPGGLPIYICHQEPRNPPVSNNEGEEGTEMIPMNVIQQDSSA

Binder | Ratio rCT/rAmylin binding
B1 | 868
B2 | 27.7
B3 | 60.9
B4 | 129
B5 | 97.7
B6 | 79.8

target: T2, human calcitonin receptor (human, UniProt P30988 25-474); experiment: ratio IC50 human calcitonin receptor / IC50 human amylin receptor (reference)
T2 construct: whole, on cells; Membranes of a stably transfected BHK cell line (Assay VII); also called hCTR; hCT
T2 sequence (looked up): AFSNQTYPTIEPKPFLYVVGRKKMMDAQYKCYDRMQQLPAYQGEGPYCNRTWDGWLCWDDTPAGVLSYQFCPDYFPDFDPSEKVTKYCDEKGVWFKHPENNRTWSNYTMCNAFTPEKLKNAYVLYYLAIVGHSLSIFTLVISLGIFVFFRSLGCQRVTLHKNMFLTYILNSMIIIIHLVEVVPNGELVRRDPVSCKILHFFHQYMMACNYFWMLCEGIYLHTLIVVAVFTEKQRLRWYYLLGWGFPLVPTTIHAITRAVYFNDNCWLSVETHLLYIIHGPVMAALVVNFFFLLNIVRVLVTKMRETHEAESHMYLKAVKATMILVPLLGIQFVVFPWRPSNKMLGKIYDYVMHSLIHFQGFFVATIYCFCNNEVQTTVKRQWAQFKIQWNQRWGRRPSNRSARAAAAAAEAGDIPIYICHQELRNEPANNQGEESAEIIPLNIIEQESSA
Method in brief: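 Competition binding by SPA with cell membranes (35 ng/μL) and SPA beads in 50 mM Hepes pH 7.4 with 1 mM CaCl2, 5 mM MgCl2, 0.1% OA and 0.02% Tween20. Incubated 120 min at 25 °C with shaking, then counted.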

Binder | Ratio hCT/hAmylin binding
B1 | 45.3
B2 | 65.3
B3 | 68.6
B4 | 26.5
B5 | 36.2
B6 | 100

target: T1, rat calcitonin receptor; experiment: SPA competition with 125I-calcitonin, membranes of BHK cells with rat calcitonin receptor (Assay VIII)

Binder | IC50 [µM]
B1 | 0.14
B2 | 0.311
B3 | 0.492
B4 | 0.0563
B5 | 0.0659
B6 | 0.216

target: T3, rat amylin receptor (rat calcitonin receptor + rat RAMP 3) (rat, UniProt P32214 25-516; Q9JJ73 23-147); experiment: SPA competition with 125I-rat amylin, membranes of BHK cells with rat calcitonin receptor + rat RAMP3 (Assay VI)
T3 construct: whole, on cells; Membranes of transiently transfected BHK tk'ts 13 cells (Assay VI); also called rAmylin-R; rat amylin 3(a) receptor
T3 sequence (looked up) 1: T1 sequence (looked up)
T3 sequence (looked up) 2: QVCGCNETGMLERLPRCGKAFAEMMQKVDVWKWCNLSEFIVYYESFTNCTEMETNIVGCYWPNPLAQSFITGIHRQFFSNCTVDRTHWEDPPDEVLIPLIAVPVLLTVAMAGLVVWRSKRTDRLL

Binder | IC50 [µM]
B1 | 0.000161
B2 | 0.0112
B3 | 0.00807
B4 | 0.000436
B5 | 0.000674
B6 | 0.0027
